{"source": "paper PMC7205462", "about": "(eLife, 2020)", "molecules": {"B1": {"name": "C4F peptide (RRYC^fluoresceinKSTEL) (peptide)", "peptide": "RRYC(fluorescein)KSTEL", "modifications": "also: fluorescein attached via 5-iodoacetamide fluorescein"}, "B2": {"name": "R9LQK peptide (…) (peptide)", "peptide": "RRYQKSTEL"}}, "key": {"TmrAB": {"target": "T1, TmrAB (Thermus thermophilus, UniProt Q72J04+Q72J05, Q72J05:E523Q)", "T1 construct": "gene TT_C0976", "assay": "biochemical"}, "[1]": {"target": "TmrA^E523QB (Thermus thermophilus)"}, "[2]": {"target": "TmrA^E523QB (Thermus thermophilus)", "conditions": "scale: translocated peptides per TmrA^EQB complex"}, "[3]": {"target": "TmrA^E523QB (Thermus thermophilus)", "remark": "listed apart in the source"}, "[4]": {"target": "Thermus thermophilus multidrug resistance transport complex TmrAB, wildtype (Thermus thermophilus)"}, "[5]": {"target": "TmrA^E523QB (Thermus thermophilus)", "assay": "radioligand binding; SPA time course at 20 °C; TmrA^EQB (0.2 µM) first converted to the OF state with Mg2+-ATP (5 min, 45 °C), excess ATP removed by rapid gel filtration, then R9LQK (10 µM, traced with 3H-R9L); mono-exponential fit; apparent"}, "[6]": {"target": "Thermus thermophilus multidrug resistance transport complex TmrAB, wildtype (Thermus thermophilus)", "assay": "radioligand binding; scintillation proximity assay (SPA), equilibrium; His-tagged TmrAB (0.2 µM) in lipid nanodiscs held on copper-chelated SPA beads; R9LQK traced with 3H-R9L; no nucleotide (IF conformation); 20 °C; background with 200 mM imidazole; one-site binding model"}}, "note": "Where no end group is shown, it is not given here. fluorescein = fluorescein (from 5-iodoacetamide fluorescein) label on the Cys side chain", "data": [{"molecule": "Nc1ncnc2c1ncn2[C@@H]1O[C@H](COP(=O)(O)OP(=O)(O)OP(=O)(O)O)[C@@H](O)[C@H]1O", "note": "[ATP]", "values": [{"measurement": "EC50", "setting": "TmrAB", "result": 30, "unit": "µM"}]}, {"molecule": "B1", "values": [{"measurement": "C4F peptides transported per liposome in the burst phase (0–5 min at 45 °C) of a time course; single-liposome flow cytometry (30 µM C4F, 3 mM Mg2+-ATP) (peptides per liposome)", "setting": "[1]", "result": 30}, {"measurement": "translocated C4F peptides per TmrA^EQB complex; single-turnover transport into proteoliposomes (50 µM C4F, 3 mM Mg2+-ATP, 5 min at 45 °C), fluorescence read-out", "setting": "[2]", "result": 0.5}, {"measurement": "C4F peptides translocated per correctly oriented TmrA^EQB upon each IF-to-OF transition; single-liposome flow cytometry (30 µM C4F, 3 mM Mg2+-ATP, two consecutive switches) (peptides per correctly oriented TmrA^EQB)", "setting": "[3]", "result": 1.3}, {"measurement": "transported C4F peptides with ATP against the background control with ADP; single-liposome flow cytometry (30 µM C4F, 3 mM Mg2+-ATP or Mg2+-ADP, 5 min at 45 °C)", "setting": "[4]", "result": 100, "unit": "fold"}]}, {"molecule": "B2", "values": [{"measurement": "apparent association rate kon (recovery of peptide binding along the OF-to-IF return)", "setting": "[5]", "result": 0.03, "unit": "min⁻¹"}, {"measurement": "half-life of the recovery of peptide binding", "setting": "[5]", "result": 24, "unit": "min"}, {"measurement": "Kd", "setting": "[6]", "result": 70, "unit": "µM"}]}]}
